# Source: paper PMC12133298
# Target: Rho WT (Escherichia coli) (UniProt P0AG30)
# Assay: EMSA
# Settings: 4 C, 1 mM ATP, 5 mM Mg2+, 25 mM Tris-Cl pH 8.0, 50 mM KCl, 5 mM MgCl2, 1 mM DTT, 37 C (or 4 C), 15 min, 0.8% agarose 0.5x TBE, 5 nM DNA
# Chain of Rho WT (Escherichia coli) (P0AG30 whole entry): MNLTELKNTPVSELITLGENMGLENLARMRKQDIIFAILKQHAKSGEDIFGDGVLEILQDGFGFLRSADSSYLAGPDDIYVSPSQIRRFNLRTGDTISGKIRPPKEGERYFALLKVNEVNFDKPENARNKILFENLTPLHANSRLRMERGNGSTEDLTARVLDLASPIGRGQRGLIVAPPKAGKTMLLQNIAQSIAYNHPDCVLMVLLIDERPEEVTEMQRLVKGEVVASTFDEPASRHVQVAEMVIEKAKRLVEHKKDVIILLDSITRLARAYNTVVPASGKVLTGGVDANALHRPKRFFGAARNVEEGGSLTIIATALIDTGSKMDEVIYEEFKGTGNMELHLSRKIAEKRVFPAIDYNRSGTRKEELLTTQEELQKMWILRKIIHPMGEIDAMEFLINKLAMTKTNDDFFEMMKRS
substance,measurement,value
3.5 kb linear dsDNA,Kd,12 nM
